Non-standard residues stand in square brackets, D forms with d. No end group written: not given here. pY = N[C@@H](Cc1ccc(OP(=O)(O)O)cc1)C(=O)O; pS = N[C@@H](COP(=O)(O)O)C(=O)O
B1: WWOX286-299 (peptide)
chain: DYWAMLAYNRSKLC
B2: pS271-ANKRD40266-281 (peptide)
chain: RIQNP[pS]LRENDFIEIE
B3: ANKRD40266-281 (peptide)
chain: RIQNPSLRENDFIEIE
B4: WWOX7-21 (peptide)
chain: AGLDDTDSEDELPPG
B5: Zfra1–31 (zinc finger-like protein that regulates apoptosis, full-length synthetic peptide) (peptide)
chain: MSSRRSSSCKYCEQDFRAHTQKNAATPFLAN
B6: pS35-TPC6A24-38 (peptide)
chain: DPGPGGQKMSL[pS]VLE
B7: pY287-WWOX286-299 (peptide)
chain: D[pY]WAMLAYNRSKLC
B8: pS14-WWOX7-21 (peptide)
chain: AGLDDTD[pS]EDELPPG

Assays:
[1] = molecular target: endogenous Aβ (AD hippocampus) (human (endogenous in postmortem hippocampus)); experiment: FRET or BRET
[2] = molecular target: the molecule itself; experiment: nonreducing SDS-PAGE of peptide polymers
[3] = molecular target: the molecule itself; experiment: reducing SDS-PAGE and Western blotting of SDS-resistant polymers

| Molecule | binding result [2] | further results |
| --- | --- | --- |
| endogenous Zfra (human hippocampus) (natural protein) | – | FRETc [1]: > 45 |
| B1 | binds | – |
| B2 | binds | – |
| B3 | binds | – |
| B4 | binds | – |
| B5 | – | binding result [3]: binds |
| B6 | binds | – |
| B7 | binds | – |
| B8 | binds | – |

— article PMC5651433 (Alzheimer's & Dementia : Translational Research & Clinical …, 2017)
